Laboratory results published in US6365372 (SAINT LOUIS UNIVERSITY, dated 2002).

B1: VP16-clone 11 chimera (other)
chain: MTAPPTDVSLGDELHLDGEDVAMAHADALDDFDLDMLGDGDSPGPGFTPHDSAPYGALDMADFEFEQMFTDALGIDEYGGGTSLASASPVPAPTPVLAPSSTQTMLPAPVPSPLPSPASTQTLALAPALAPTLGGSSPSQTLSLGTGNPQGPFPTQTLSLTPASSLVPTPAQTLSLAPGPPLGPTQTLSLAPAPPLAPASPVGPAPAHTLTLAPASSSASLLAPASVQTLTLSPAPVPTLGPAAAQTLALAPASTQSPASQASSLVVSASGAAPLPVTMVSRLPVSKDEPDTLTLRSGPPSPPSTATSFGGPRPRRQPPPPPRSPFYLDSLEEKRKRQRSERLERIFQLSEAHGALAPVYGTEVLDFCTLPQPVASPIGPRSPGPSHPTFWTYTEAAHRA
B2: VP16 activation domain (other)
chain: MTAPPTDVSLGDELHLDGEDVAMAHADALDDFDLDMLGDGDSPGPGFTPHDSAPYGALDMADFEFEQMFTDALGIDEYGG
notes: range 412-491; Control without the clone 11 part; also called pVP16

Tests used:
[1] = biological target: T1, Gal-CBP280-460 chimera (yeast, UniProt P04386 1-147; P45481 280-460); experiment: cell-based or functional assay
[2] = biological target: Gal-CBP227-460 chimera (yeast, UniProt P04386 1-147; P45481 227-460); experiment: cell-based or functional assay
[3] = biological target: T1, Gal-CBP280-460 chimera; experiment: mammalian two-hybrid assay in HeLa cells

Binder	transcription of the reporter gene pGal-CAT (relative CAT activity) [1]	ability of the Gal-CBP227-460 chimera to activate transcription of the reporter gene pGal-CAT [2]	binding result [3]
B1	~20 fold	~1.5 fold	–
B2	–	–	no binding
